B1: IFT52/70 complex (SNAP-IFT52/SNAP-IFT70) (complex)
chain 1: MEKELRSTILFNAYKKEVFTTNTGYKSLQKRLRSNWKIQSLKDEITSEKLIGVKLWITAGPREKFTAAEFEVLKKYLDSGGDILVMLGEGGESRFDTNINFLLEEYGIMVNNDAVVRNVYYKYFHPKEALVSDGVLNREISRAAGKAVPGVIDEENSGNNAQALTFVYPFGATLSVMKPAVAVLSTGSVCFPLNRPILAFYHSKNQGFGKLAVLGSCHMFSDQYLDKEENSKIMDVVFQWLTTGDIHLNQIDAEDPEISDYTMVPDTATLSEQLRVCLQEGDENPRDFTTLFDLSIYQLDTTCLPKVIKAHEELNVKHEPLQLVQPQFEMPLPALQPAVFPPSFRELPPPPLELFDLDETFSSEKARLAQITNKCTDEDLEFYVRKCGDILGVTSKLPKDQQDAKHILEHIFFQVVEFKKLNQEAH
chain 2: MAGLSGAQIPDGEFTAVVYRLIRNARYAEAVQLLGGELQRSPRSRAGLSLLGYCYYRLQEFALAAECYEQLGQLHPELEQYRLYQAQALYKACLYAEATRVAFLLLDNPAYHSRVLRLQAAIKYSEGDLPGSRSLVEQLPSREGGEESGGENETDGQINLGCLLYKEGQYEAACSKFFAALQASGYQPDLSYNLALAYYSSRQYASALKHIAEIIERGIRQHPELGVGMTTEGIDVRSVGNTLVLHQTALVEAFNLKAAIEYQLRNYEAAQEALTDMPPRAEEELDPVTLHNQALMNMDARPTEGFEKLQFLLQQNPFPPETFGNLLLLYCKYEYFDLAADVLAENAHLIYKFLTPYLYDFLDAVITCQTAPEEAFIKLDGLAGMLTEVLRKLTIQVQEARHNRDDEAIKKAVNEYDETMEKYIPVLMAQAKIYWNLENYPMVEKIFRKSVEFCNDHDVWKLNVAHVLFMQENKYKEAIGFYEPIVKKHYDNILNVSAIVLANLCVSYIMTSQNEEAEELMRKIEKEEEQLSYDDPDKKMYHLCIVNLVIGTLYCAKGNYDFGISRVIKSLEPYNKKLGTDTWYYAKRCFLSLLENMSKHTIMLRDSVIQECVQFLEHCELHGRNIPAVIEQPLEEERMHVGKNTVTYESRQLKALIYEIIGWNI
modifications: SNAP-Surface Alexa Fluor 647 on the SNAP tag | SNAP-Surface Alexa Fluor 647 on the SNAP tag
B2: GFP-HSET (full-length N-terminal hexa-histidine-tagged GFP-HSET) (natural protein, human, UniProt Q9BW19 1-673, looked up)
chain: MDPQRSPLLEVKGNIELKRPLIKAPSQLPLSGSRLKRRPDQMEDGLEPEKKRTRGLGATTKITTSHPRVPSLTTVPQTQGQTTAQKVSKKTGPRCSTAIATGLKNQKPVPAVPVQKSGTSGVPPMAGGKKPSKRPAWDLKGQLCDLNAELKRCRERTQTLDQENQQLQDQLRDAQQQVKALGTERTTLEGHLAKVQAQAEQGQQELKNLRACVLELEERLSTQEGLVQELQKKQVELQEERRGLMSQLEEKERRLQTSEAALSSSQAEVASLRQETVAQAALLTEREERLHGLEMERRRLHNQLQELKGNIRVFCRVRPVLPGEPTPPPGLLLFPSGPGGPSDPPTRLSLSRSDERRGTLSGAPAPPTRHDFSFDRVFPPGSGQDEVFEEIAMLVQSALDGYPVCIFAYGQTGSGKTFTMEGGPGGDPQLEGLIPRALRHLFSVAQELSGQGWTYSFVASYVEIYNETVRDLLATGTRKGQGGECEIRRAGPGSEELTVTNARYVPVSCEKEVDALLHLARQNRAVARTAQNERSSRSHSVFQLQISGEHSSRGLQCGAPLSLVDLAGSERLDPGLALGPGERERLRETQAINSSLSTLGLVIMALSNKESHVPYRNSKLTYLLQNSLGGSAKMLMFVNISPLEENVSESLNSLRFASKVNQCVIGTAQANRK
notes: HSET (KIFC1), human mitotic kinesin-14, full length; Dimer by mass photometry (measured 232 ± 34 kDa, expected 210 kDa for the GFP-HSET dimer); also called KIFC1; kinesin-14; source: Sf9 insect cells, baculovirus, purified (Ni-NTA); not shown: GFP, N-terminal, kept

What was measured:
[1] = molecular target: B2; assay: cell-based or functional assay
[2] = molecular target: B2; assay: mass photometry; in solution; pre-incubated 30 min at 30 °C (1.2 µM GFP-HSET, 2.4 µM IFT52/70) in 20 mM Na-Hepes pH 7.2, 150 mM NaCl, 2 mM MgCl2, 10% glycerol, 5 mM β-mercaptoethanol; measured at 2.5 nM GFP-HSET and 5 nM IFT52/70, alone or mixed, 25 °C; conditions: both partners purified
[3] = molecular target: the molecule itself; assay: as above

| Binder | GFP-HSET (5 nM) fluorescence at microtubule minus ends relative to the lattice, with IFT52/70 (10 nM) (1.38 versus 2.34) [1] | stoichiometry N [2] | stoichiometry N [3] |
| --- | --- | --- | --- |
| B1 | 1.7 fold | 2 IFT52/70 dimers per GFP-HSET dimer |  |
| B2 |  |  | 2 |
